# Experimental data published in PMC3783020 (Cellular microbiology, 2012).
# T1: CHMP3 full length (residues 1-222) (human, UniProt Q9Y3E7 1-222)
# T1 sequence (looked up): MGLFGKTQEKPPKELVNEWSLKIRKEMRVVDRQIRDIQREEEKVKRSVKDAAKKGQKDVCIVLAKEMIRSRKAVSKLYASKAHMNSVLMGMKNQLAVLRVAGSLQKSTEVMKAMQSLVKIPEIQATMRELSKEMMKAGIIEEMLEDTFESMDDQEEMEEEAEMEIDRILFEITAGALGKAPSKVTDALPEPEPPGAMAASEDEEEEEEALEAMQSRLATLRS
# Assays:
# [1] = biological target: MBP-CHMP4B_(ΔC-Alix) (human); experiment: SPR
# [2] = biological target: MBP-CHMP4B_(ΔC-Alix) (human); experiment: SPR; remark: listed apart in the source
# [3] = biological target: T1, CHMP3 full length (residues 1-222); experiment: SPR
# [4] = biological target: CHMP2B-His6 (full length) (human, UniProt Q9UQN3 1-213); experiment: SPR
# Chain of CHMP2B-His6 (full length) (human, UniProt Q9UQN3 1-213) (Q9UQN3 whole entry, the tested form may be a part): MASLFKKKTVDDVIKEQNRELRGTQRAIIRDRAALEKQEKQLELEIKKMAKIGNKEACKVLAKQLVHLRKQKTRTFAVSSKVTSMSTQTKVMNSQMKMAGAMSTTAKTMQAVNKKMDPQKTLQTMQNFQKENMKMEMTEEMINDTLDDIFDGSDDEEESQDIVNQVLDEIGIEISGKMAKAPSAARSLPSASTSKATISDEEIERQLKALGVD
# [5] = biological target: T1, CHMP3 full length (residues 1-222); experiment: cryo-EM structure
# Chain of CHMP2B-His6 (full length) (from UniProt Q9UQN3 1-213) (natural protein) (Q9UQN3 whole entry): as the sequence (Q9UQN3 whole entry, the tested form may be a part) above
molecule,measurement,setting,value
CHMP2B-His6 (full length) (from UniProt Q9UQN3 1-213) (natural protein),Kd,[1],0.56 µM
CHMP3 full length (residues 1-222) (natural protein) MGLFGKTQEKPPKELVNEWSLKIRKEMRVVDRQIRDIQREEEKVKRSVKDAAKKGQKDVCIVLAKEMIRSRKAVSKLYASKAHMNSVLMGMKNQLAVLRVAGSLQKSTEVMKAMQSLVKIPEIQATMRELSKEMMKAGIIEEMLEDTFESMDDQEEMEEEAEMEIDRILFEITAGALGKAPSKVTDALPEPEPPGAMAASEDEEEEEEALEAMQSRLATLRS,KD1 (at low concentrations),[2],0.15 µM
"MBP-CHMP2AΔC (residues 9-161) (domain or fragment, human, UniProt O43633 9-161, looked up, biotin on lysines (biotin sulfo-LC-NHS, molar ratio 1:5) where it was immobilised; not biotinylated as analyte) KTPEELLRQNQRALNRAMRELDRERQKLETQEKKIIADIKKMAKQGQMDAVRIMAKDLVRTRRYVRKFVLMRANIQAVSLKIQTLKSNNSMAQAMKGVTKAMGTMNRQLKLPQIQKIMMEFERQAEIMDMKEEMMNDAIDDAMGDEEDEEESD",Kd,[3],3.2 µM
"CHMP3ΔC (residues 9-183) (domain or fragment, human, UniProt Q9Y3E7 9-183, looked up) EKPPKELVNEWSLKIRKEMRVVDRQIRDIQREEEKVKRSVKDAAKKGQKDVCIVLAKEMIRSRKAVSKLYASKAHMNSVLMGMKNQLAVLRVAGSLQKSTEVMKAMQSLVKIPEIQATMRELSKEMMKAGIIEEMLEDTFESMDDQEEMEEEAEMEIDRILFEITAGALGKAPSK",Kd,[4],1.4 µM
"CHMP2AΔC (residues 9-161), MBP removed (domain or fragment, human, UniProt O43633 9-161, looked up) KTPEELLRQNQRALNRAMRELDRERQKLETQEKKIIADIKKMAKQGQMDAVRIMAKDLVRTRRYVRKFVLMRANIQAVSLKIQTLKSNNSMAQAMKGVTKAMGTMNRQLKLPQIQKIMMEFERQAEIMDMKEEMMNDAIDDAMGDEEDEEESD",binding result,[5],binds
